This note sets out measurements from patent publication US5789380A, “Agents for inhibiting accumulation of visceral fat” (Nisshin Flour Milling Co., Ltd., priority 1996, dated 1998).

In assay [1] the target is T1, human pancreatic α-amylase (human, UniProt P04746).
T1 sequence: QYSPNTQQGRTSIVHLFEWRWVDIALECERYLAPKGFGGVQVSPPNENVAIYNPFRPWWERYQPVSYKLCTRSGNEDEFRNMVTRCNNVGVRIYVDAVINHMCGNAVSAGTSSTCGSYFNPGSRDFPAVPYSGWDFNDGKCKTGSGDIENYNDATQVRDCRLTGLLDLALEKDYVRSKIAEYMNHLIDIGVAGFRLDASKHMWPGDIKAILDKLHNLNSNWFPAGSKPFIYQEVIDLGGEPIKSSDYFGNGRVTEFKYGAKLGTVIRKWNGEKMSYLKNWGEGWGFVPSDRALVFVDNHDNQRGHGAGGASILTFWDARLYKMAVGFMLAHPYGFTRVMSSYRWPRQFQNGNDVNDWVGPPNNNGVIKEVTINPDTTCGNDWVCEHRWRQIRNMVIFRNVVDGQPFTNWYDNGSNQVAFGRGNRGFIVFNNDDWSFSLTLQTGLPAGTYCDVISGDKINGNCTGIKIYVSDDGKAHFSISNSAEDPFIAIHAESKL
Put plainly: cell-based or functional assay.

Assay [2] relates to human pancreatic α-amylase. The experiment in a line: Determination of inhibitory activity against human pancreatic α-amylase. It counts as biochemical. The settings on record: 1 U = amount inhibiting 50% of amylase activity, pH 6.9, 37° C., soluble starch. Here is the method:
The numerical values as given herein for the amylase inhibitory activity are determined by the following method, which are represented in terms of the inhibitory activity value against human pancreatic α-amylase.
Determination of inhibitory activity against human pancreatic α-amylase:
An aqueous solution of a sample and human pancreatic α-amylase were added to 20 mM piperazine-N,N'-bis(2-ethanesulfonic acid) buffer (pH 6.9) containing 50 mM NaCl, 5 mM CaCl2 and 0.02% egg white albumin. The mixture was allowed to stand at 37° C. for 30 min. and then mixed with 0.5 ml of a 1.5% soluble starch solution (pH 6.9). The resulting solution was allowed to react while maintaining at 37° C. for 10 min. and the reaction was then ceased by adding 2.5 ml of a solution (0.08M HCl and 0.4M acetic acid). To 0.2 ml of the reaction solution was added 2.5 ml of an iodine solution (0.05% KI and 0.005% iodine), and the mixture was measured for absorbance at 660 nm. The amylase was used in an amount sufficient to reduce 80% absorbance when no sample solution was contained and the amount of the amylase inhibitor sufficient to inhibit 50% amylase activity at this time was expressed as 1 amylase inhibitory unit (U).

B1: 0.28 AI (other)
chain: SGPWSWCNPATGYKVSALTGCRAMVKLQCVGSQVPEAVLRDCCQQLADINNEWCRCGDLSSMLRAVTQELGVREGKEVLPGCRKEVMKLTAASVPEVCKVPIPNPSGDRAGVCYGDWCAYPDV
For the molecule B1, the “Amylase inhibitory activity (U/mg)” value in assay [1] is 840 U/mg.

B2: 0.19 AI (other)
chain: SGPWMCYPGQAFQVPALPACRPLLRLQCNGSQVPEAVLRDCCQQLAHISEWCRCGALYSMLDSMYKEHGAQEGQAGTGAFPRCRREVVKLTAASITAVCRLPIVVDASGDGAYVCKDVAAYPDA
In the case of B2, the “Amylase inhibitory activity (U/mg)” value in assay [1] came to 20300 U/mg.

B3: 0.26 AIb (other)
chain: SGPWMCYPGYAFKVPALPGCRPVLKLQCNGSQVPEAVLRDCCQQLADISEWCRCGALYSMLDSMYKEHGVQEGQAGTGAFPSCRREVVKLTAASITAVCKLPIVIDASGDGAYVCKGVAAYP
On to B3, for which the “Amylase inhibitory activity (U/mg)” value in assay [1] was found to be 20500 U/mg.

B4: 0.26 AIa (other)
chain: SGPWMCYPGYAFKVPALPGCRPVLKLQCNGSQVPEAVLRDCCQQLADISEWCRCGALYSMLDSMYKEHGVQEGQAGTGAFPSCRREVVKLTAASITAVCKLPIVIDASGDGAYVCKGVAAYPDA
For B4, in assay [1], the “Amylase inhibitory activity (U/mg)” value was 26100 U/mg.

B5: 0.53 AI (other)
chain: SGPWMCYPGQAFQVPALPGCRPLLKLQCNGSQVPEAVLRDCCQQLADISEWPRCGALYSMLDSMYKEHGVSEGQAGTGAFPSCRREVVKLTAASITAVCRLPIVVDASGDGAYVCKDVAAYPDA
In the case of B5, the “Amylase inhibitory activity (U/mg)” value in assay [1] is 3940 U/mg.

B6: 0.53 AI: known wheat amylase inhibitor protein composed of two subunits, each identified as SEQ ID NO:4 (protein)
chain 1: SGPWMCYPGQAFQVPALPGCRPLLKLQCNGSQVPEAVLRDCCQQLADISEWPRCGALYSMLDSMYKEHGVSEGQAGTGAFPSCRREVVKLTAASITAVCRLPIVVDASGDGAYVCKDVAAYPDA
chain 2: SGPWMCYPGQAFQVPALPGCRPLLKLQCNGSQVPEAVLRDCCQQLADISEWPRCGALYSMLDSMYKEHGVSEGQAGTGAFPSCRREVVKLTAASITAVCRLPIVVDASGDGAYVCKDVAAYPDA
With B6, the Amylase inhibitory activity is listed as 3,940 U/mg in assay [2] and “less amylase inhibitory activity” in assay [2] (listed as 0.58 AI).
